{"source": "paper doi:10.1101/2023.07.25.550521", "key": {"[1]": {"target": "MADD (DENN/MADD, RAB3-GEP) (UniProt Q8WXG6)", "test": "GFP-Trap co-IP, HA blot", "conditions": "reference: wild type; sites T86"}, "RAB-GDI1": {"target": "RAB-GDI1 (UniProt P31150)", "test": "GFP-Trap co-IP, RAB-GDI1 blot", "conditions": "reference: wild type; sites T86"}}, "data": [{"substance": "RAB3A (from UniProt P20336) T86A", "values": [{"measurement": "binding against the reference", "setting": "[1]", "value": "stronger"}, {"measurement": "binding against the reference", "setting": "RAB-GDI1", "value": "stronger"}]}]}
